Measurements as given in US11331368B2, “Angiotensin receptor agonists and uses thereof” (Monash University, priority 2017, dated 2022).
Blank lines part the entries; values can stand above or below the binder they belong to. Square brackets hold non-standard residues; d marks the D form. Ends that are not written are not given here. βVal = β-valine (β-amino acid form of Val); βIle = beta-form isoleucine

Legend:
[1] = biological target: T1, human Angiotensin II Receptor Type 2 (AT2R) (human, UniProt P50052 1-363); assay: competition radioligand binding on HEK-293 cells with AT2R; competitor [125I]-Sar1Ile8Ang II
T1 construct: whole, on cells; also endogenous on human cardiac fibroblasts (functional entries); also called AT2 receptor
T1 sequence (looked up): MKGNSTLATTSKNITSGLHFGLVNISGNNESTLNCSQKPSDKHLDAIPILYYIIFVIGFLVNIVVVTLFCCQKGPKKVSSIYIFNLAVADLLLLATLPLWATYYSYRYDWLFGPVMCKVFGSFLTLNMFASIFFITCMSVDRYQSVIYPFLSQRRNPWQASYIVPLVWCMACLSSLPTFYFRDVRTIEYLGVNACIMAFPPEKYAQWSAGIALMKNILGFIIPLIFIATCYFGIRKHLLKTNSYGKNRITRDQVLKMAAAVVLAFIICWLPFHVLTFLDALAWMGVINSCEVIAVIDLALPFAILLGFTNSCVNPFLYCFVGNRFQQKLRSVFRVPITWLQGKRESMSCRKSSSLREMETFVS
Method: (§1) For each experiment, each ligand concentration was tested in duplicate or triplicate, and each experiment was repeated at least 3 separate times.

[2] = biological target: T1, human Angiotensin II Receptor Type 2 …; assay: AT2R over AT1R, from IC50s of competition radioligand binding; reference AT1R
Method: as §1

[3] = biological target: T2, human Angiotensin II Receptor Type 1 (AT1R) (human, UniProt P30556 1-359); assay: competition radioligand binding on HEK-293 cells with AT1R; competitor [125I]-Sar1Ile8Ang II
T2 construct: whole, on cells; also endogenous on human cardiac fibroblasts (functional entry); also called AT1 receptor
T2 sequence (looked up): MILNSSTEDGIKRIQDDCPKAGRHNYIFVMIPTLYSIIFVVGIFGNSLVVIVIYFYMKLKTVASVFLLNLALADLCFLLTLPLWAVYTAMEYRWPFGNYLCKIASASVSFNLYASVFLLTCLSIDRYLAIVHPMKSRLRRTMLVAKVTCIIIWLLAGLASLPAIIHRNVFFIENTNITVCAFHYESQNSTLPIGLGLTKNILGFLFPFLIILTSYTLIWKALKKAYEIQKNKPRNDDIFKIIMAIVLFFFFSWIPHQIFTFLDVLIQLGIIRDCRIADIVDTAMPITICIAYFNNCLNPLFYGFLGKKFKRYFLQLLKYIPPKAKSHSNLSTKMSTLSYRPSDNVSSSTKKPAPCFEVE
Method: as §1

IC50 [1]: 9.6 nM | Fold AT2R selectivity [2]: 1040 fold
B1: βIle-8-Ang III (peptide)
peptide: RVYIHP[βIle]-OH
notes: synthetic peptide; also called Arg-Val-Tyr-Ile-His-Pro-β-Ile

IC50 [3]: 1210 nM
B2: βVal-Trp-8-Ang III (peptide)
peptide: R[βVal]YIHPW
notes: synthetic peptide; also called Arg-β-Val-Tyr-Ile-His-Pro-Trp
